According to patent US20160362476:

Biological target: T1, phiC31 integrase (Streptomyces phage phiC31) (UniProt Q9T221)
T1 sequence: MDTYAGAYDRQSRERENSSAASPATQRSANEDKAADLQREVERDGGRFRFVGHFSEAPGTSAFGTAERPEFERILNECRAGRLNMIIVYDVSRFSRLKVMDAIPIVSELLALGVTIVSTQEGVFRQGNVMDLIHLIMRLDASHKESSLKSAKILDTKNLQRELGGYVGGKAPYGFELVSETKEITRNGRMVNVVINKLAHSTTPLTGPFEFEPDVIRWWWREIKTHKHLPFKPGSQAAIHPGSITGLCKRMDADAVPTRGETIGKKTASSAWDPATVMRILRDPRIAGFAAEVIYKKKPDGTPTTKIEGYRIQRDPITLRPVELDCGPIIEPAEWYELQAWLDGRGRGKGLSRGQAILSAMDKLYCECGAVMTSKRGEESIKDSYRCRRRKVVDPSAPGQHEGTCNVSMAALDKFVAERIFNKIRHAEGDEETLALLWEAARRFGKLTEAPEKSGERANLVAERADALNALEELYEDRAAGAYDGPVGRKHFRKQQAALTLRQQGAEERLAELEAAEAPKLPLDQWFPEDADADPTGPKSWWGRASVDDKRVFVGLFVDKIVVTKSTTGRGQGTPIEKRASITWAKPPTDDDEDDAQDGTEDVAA
Assay: cell_activity

Row | Substance | activity (recombination partner of attP in E. coli TG1, camR selection) [%] | activity (co-integration of pDonor attP with pAcceptor attB in E. coli TG1, camR/ampR ratio versus already co-integrated plasmid) [%]
1 | GGTGCCAGGGCGTGCCCTTGGGCTCCCCGGGCGCGTACTGAANTATACAAA (double strand) [phiC31 attB (36 bp, in pAcceptor 5' of promoterless camR)] | > 90 | –
2 | phiC31 attP (36 bp, used as scFv linker in pDonor) | – | > 90
